Data reported in PMC3142617 (Cell host & microbe, 2011).

Experiments:
SEC-MALS = target: the molecule itself; assay: SEC-MALS
AUC = target: the molecule itself; assay: AUC

B1: L6TIR (L6 TIR domain, residues 29-229) (domain or fragment, flax (Linum usitatissimum))
chain: SNAKDSIVNDDDDSTSEVDAISDSTNPSGSFPSVEYEVFLSFRGPDTREQFTDFLYQSLRRYKIHTFRDDDELLKGKEIGPNLLRAIDQSKIYVPIISSGYADSKWCLMELAEIVRRQEEDPRRIILPIFYMVDPSDVRHQTGCYKKAFRKHANKFDGQTIQNWKDALKKVGDLKGWHIGKNDKQGAIADKVSADIWSHISKEN
Which results are given for B1?
stoichiometry N (SEC-MALS): ~2; Kd (AUC): 20.3 µM; stoichiometry N (AUC): 2
